Reference: patent US12264201B2, “Bispecific antibody targeting IL-1R1 and NLPR3” (University of Ulster, priority 2018, dated 2025)

System: apoE−/− mice
Assay: Atherosclerosis: collar-induced carotid artery plaque formation, morphometry
Format: in vivo
Description: Female apoE−/− mice were fed a Western-type diet, containing 0.25% cholesterol and 15% cacao butter (SDS, Sussex, UK) starting two weeks prior to surgery and throughout the experiment. After 2 weeks of diet feeding, carotid artery plaque formation was induced by perivascular collar placement in these mice as described previously (von der Thusen et al, Circulation. 2001; 103(8):1164-1170). […] Through the experiment, mice were weighed weekly and blood samples were obtained via the tail vein. Total cholesterol levels were determined in the serum using enzymatic colorimetric procedures (Roche/Hitachi, Mannheim, Germany). Precipath (Roche/Hitachi) was used as an internal standard. Fasting glucose levels were determined in mice at 2 weeks after starting the treatment with InflaMab and were measured with an Accu-Check glucometer (Roche Diagnostics, Almere, The Netherlands). For lipid profiling, serum samples pooled from 3 mice were used (n=3 samples per group) which were diluted 6 times, and fractionation of plasma lipoproteins was performed using an AKTA-FPLC. In each fraction, the total cholesterol levels were determined by incubation with cholesterol CHOD-PAP Reagent (Roche, Woerden, The Netherlands). Absorbance was measured at 492 nm.
After 4 weeks of treatment, the mice were anesthetized and in situ perfused, after which the carotid arteries were collected, frozen in OCT compound (TissueTek; Sakura Finetek, The Netherlands) and stored at −80° C. Transverse 10 μm cryosections were prepared on a Leica CM 3050S Cryostat (Leica Instruments) in a proximal direction for (immuno)histochemical analysis.
Cryosections were routinely stained with hematoxylin (Sigma-Aldrich, Zwijndrecht, The Netherlands) and eosin (Merck Diagnostica, Darmstadt, Germany). Morphometric analysis (Leica Qwin image analysis software) was performed on hematoxylin-eosin stained sections of the carotid arteries. For each carotid, lesion size was quantified every 100 μm, from the first appearance of the lesion proximal to the collar up to complete disappearance of the lesion from the artery. The number of sections analyzed ranged from 5 to 15 sections per mouse, from which average plaque size and plaque volume were calculated. The section with the largest plaque size was annotated as the plaque with maximum stenosis. For the quantification of lesion content in the carotid artery, four consecutive cross-sections containing the largest lesions were used. To determine lipid content, sections were stained with Oil-Red-O (Sigma-Aldrich). Macrophage content of the lesions was assessed using a rat monoclonal MOMA-2 antibody (Serotec, Kidlington, Oxford, UK). Collagen was visualized using a Sirius Red staining (Sigma-Aldrich). Mast cells and neutrophils were visualized by staining of cryosections with naphthol AS-D chloroacetate esterase (Sigma-Aldrich). The number of mast cells and neutrophils was assessed manually in two consecutive cross-sections containing the largest lesions. MOMA-2 and collagen positive areas were quantified by Leica Qwin image analysis software using a Leica DM-RE microscope (Leica Microsystems Inc., Wetzlar, Germany). All morphometric analyses were performed by a blinded operator (T.v.d.H.).
Atherosclerosis study: InflaMab reduces plaque size in an in vivo apoe−/− model of atherosclerosis—see FIG. 38. After 2 weeks of western type diet feeding in female apoE−/− mice, carotid artery plaque formation was induced by perivascular collar placement. […] Carotid arteries then collected for cyrosections. For each carotid, lesion size was quantitated every 80 μm, from the first appearance of the lesion proximal to the collar up to complete disappearance of the lesion from the artery.

B1: InflaMab: 210 kDa bispecific mouse antibody to IL-1R1 and NLRP3; light chain SEQ ID NO: 57, heavy chain with scFv SEQ ID NO: 59 (protein)
light: MVSSAQFLGLLLLCFQGTRCDIVMTQSPATLSVTPGDRVSLSCRASQSISDYLSWYQQRSHESPRLIIKYASQSISGIPSRFSGSGSGSDFTLSINSVEPEDVGVYYCQHGHSFPLTFGSGTKLELKRADAAPTVSIFPPSSEQLTSGGASVVCFLNNFYPKDINVKWKIDGSERQNGVLNSWTDQDSKDSTYSMSSTLTLTKDEYERHNSYTCEATHKTSTSPIVKSFNRNEC
heavy: MGWTLVFLFLLSVTAGVHSQIQLVQSGPELRKPGETVRISCKASGYPFTTAGLQWVQKMSGKGLKWIGWMNTQSEVPKYAEEFKGRIAFSLETAASTAYLQINNLKTEDTATYFCAKSVYFNWRYFDVWGAGTTVTVSSAKTTAPSVYPLAPVCGDTTGSSVTLGCLVKGYFPEPVTLTWNSGSLSSGVHTFPAVLQSDLYTLSSSVTVTSSTWPSQSITCNVAHPASSTKVDKKIEPRGPTIKPCPPCKCPAPNLLGGPSVFIFPPKIKDVLMISLSPIVTCVVVDVSEDDPDVQISWFVNNVEVHTAQTQTHREDYNSTLRVVSALPIQHQDWMSGKEFKCKVNNKDLPAPIERTISKPKGSVRAPQVYVLPPPEEEMTKKQVTLTCMVTDFMPEDIYVEWTNNGKTELNYKNTEPVLDSDGSYFMYSKLRVEKKNWVERNSYSCSVVHEGLHNHHTTKSFSRTPGKGSAGGSGGDSEVQLVESGGGLVKPGGSLKLSCAASGFTFSDYYMYWVRQTPEKRLEWVATISDGGTYTYYPDSVKGRFTISRDNAKNNLYLQMNSLKSEDTAMYYCARGWVSTMVKLLSSFPYWGQGTLVTVSAGGGGSGGGGSGGGGSQAVVTQESALTTSPGETVTLTCRSSTGAVTTSNYANWVQEKPDHLFTGLIGGTNNRAPGVPARFSGSLIGDKAALTITGAQTEDEAIYFCALWYSNYWVFGGGTKLTVLGQPK
For B1, the “reduction in lesion size” value (FIG. 38, significant, versus control) was −35%, the Mouse weight (InflaMab versus control groups) was “no difference” and the “general white blood cell levels (hematology analysis)” value (InflaMab versus control groups) was “no difference”. For the same molecule, the “% reduction of plaque size at site of maximal stenosis” value (InflammAb average versus Control IgG average) was 30.6164%, the “Average plaque size, group Average” value (group average, 10 mice listed) was 36604 μm^2 and the “Lumen size at site of maximal stenosis, Average” value (group average, 10 mice listed) was 11415 μm^2. The “Media (size) at site of maximal stenosis, Average” value (group average, 10 mice listed) was 40997 μm^2, the “Plaque size at site of maximal stenosis, Average” value (group average, 10 mice listed) was 58881 μm^2 and the “total vessel area at site of maximal stenosis, Average” value (group average, 10 mice listed) was 111293 μm^2. The “Lumen size (area of the artery still open for blood flow) compared to Control IgG” value (in words) was “almost significantly larger”, the “Total vessel area (plaque+media+lumen) compared to Control IgG” value (in words) was “not different” and the “media size (size of the medial smooth muscle layer) compared to Control IgG” value (in words, Tables 5 and 6) was “no effect”. For the same molecule, the “lesion size, FIG. 38a” value (versus control, in words) was “trend towards a reduction”.
